Measurements as given in patent publication US20150299296A1 (Chugai, published 2015).
Substitutions are numbered along the chain they refer to. In names and notes the source's numbering stands.

T1: human FcγRIIb extracellular domain with C-terminal His tag (human, UniProt P31994 43-217)
T1 construct: extracellular domain; For crystals it was expressed with kifunensine and trimmed with Endo F1; also called FcgRIIb; FcγRIIb extracellular region
T1 sequence (looked up): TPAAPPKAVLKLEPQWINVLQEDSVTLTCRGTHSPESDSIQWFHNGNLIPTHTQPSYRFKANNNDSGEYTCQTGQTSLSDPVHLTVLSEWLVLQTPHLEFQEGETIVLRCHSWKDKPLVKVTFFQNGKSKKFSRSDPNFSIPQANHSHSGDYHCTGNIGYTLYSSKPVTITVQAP

B1: IL6R-BP503/IL6R-L (antibody, human IgG1, kappa)
heavy: QVQLQESGPGLVKPSETLSLTCAVSGHSISHDHAWSWVRQPPGEGLEWIGFISYSGITNYNPSLQGRVTISRDNSKNTLYLQMNSLRAEDTAVYYCARSLARTTAMDYWGEGTLVTVSSASTKGPSVFPLAPSSKSTSGGTAALGCLVKDYFPEPVTVSWNSGALTSGVHTFPAVLQSSGLYSLSSVVTVPSSSLGTQTYICNVNHKPSNTKVDKKVEPKSCDKTHTCPPCPAPDLLGDDSVFLFPPKPKDTLMISRTPEVTCVVIDVAEEDGEVKFNWYVDGVEVHNAKTKPREEQDNSTYRVVSVLTVLHQDWLNGKEYKCKVSNKGLPRPIEKTISKAKGQPREPQVYTLPPSRDELTKNQVSLTCLVKGFYPSDIAVEWESNGQPENNYKTTPMVLDSDGSFFLYSKLTVDKSRWQQGNVFSCSVMHEALHNHYTQESLSLSP
light: not shown
B2: IL6R-BP491/IL6R-L (antibody, human IgG1, kappa)
heavy: B1 heavy with D235E, G329A, M398P
light: not shown
B3: IL6R-BP487/IL6R-L (antibody, human IgG1, kappa)
heavy: B1 heavy with D298Y, G329A
light: not shown
B4: IL6R-BP490/IL6R-L (antibody, human IgG1, kappa)
heavy: B1 heavy with D235E, D298Y, G329A, M398P
light: not shown
B5: IL6R-BP488/IL6R-L (antibody, human IgG1, kappa)
heavy: B1 heavy with G329A, M398P
light: not shown
B6: IL6R-BP445/IL6R-L (antibody, human IgG1, kappa)
heavy: B1 heavy with D298Y, G329A, M398P
light: not shown
B7: IL6R-BP499/IL6R-L (antibody, human IgG1, kappa)
heavy: B1 heavy with G329A, M398L
light: not shown
B8: IL6R-BP511/IL6R-L (antibody, human IgG1, kappa)
heavy: B1 heavy with D235E, E274P, G329A, M398P
light: not shown
B9: IL6R-BP510/IL6R-L (antibody, human IgG1, kappa)
heavy: B1 heavy with D235E, E274P, D298Y, G329A, M398P
light: not shown
notes: also called IL6R-BP510/L6R-L
B10: IL6R-BP498/IL6R-L (antibody, human IgG1, kappa)
heavy: B1 heavy with D298Y, G329A, M398L
light: not shown
B11: IL6R-BP436/IL6R-L (antibody, human IgG1, kappa)
heavy: B1 heavy with I266V, G329A, I334T, M398P
light: not shown
B12: IL6R-BP494/IL6R-L (antibody, human IgG1, kappa)
heavy: B1 heavy with D235E, I266V, G329A, M398P
light: not shown
B13: IL6R-BP567/IL6R-L (antibody, human IgG1, kappa)
heavy: B1 heavy with D239G, G329A, R332A, M398P
light: not shown
B14: mutation A (antibody, human IgG1, kappa)
heavy chain: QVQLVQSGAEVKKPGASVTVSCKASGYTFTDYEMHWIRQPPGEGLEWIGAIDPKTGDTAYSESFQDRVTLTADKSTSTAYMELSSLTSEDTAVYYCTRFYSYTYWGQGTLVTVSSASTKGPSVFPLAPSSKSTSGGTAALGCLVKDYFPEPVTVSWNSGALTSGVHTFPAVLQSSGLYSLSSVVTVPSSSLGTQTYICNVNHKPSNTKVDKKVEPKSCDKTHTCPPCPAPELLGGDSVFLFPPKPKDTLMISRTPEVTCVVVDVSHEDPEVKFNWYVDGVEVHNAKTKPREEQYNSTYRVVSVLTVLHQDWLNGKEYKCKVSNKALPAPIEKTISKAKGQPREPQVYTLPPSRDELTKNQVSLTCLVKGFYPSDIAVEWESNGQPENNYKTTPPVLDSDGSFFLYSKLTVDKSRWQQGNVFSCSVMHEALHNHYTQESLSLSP
light chain: DIVMTQSPLSLPVTPGEPASISCQASESLVHSNRNTYLHWYLQKPGQSPQLLIYKVSNRFSGVPDRFSGSGSGTDFTLKISRVEAEDVGVYYCSQNTHVPPTFGQGTKVEIERTVAAPSVFIFPPSDEQLKSGTASVVCLLNNFYPREAKVQWKVDNALQSGNSQESVTEQDSKDSTYSLSSTLTLSKADYEKHKVYACEVTHQGLSSPVTKSFNRGEC
B15: IL6R-BP479/IL6R-L (antibody)
chain 1: B1 heavy with V268L, D298Y, G329A, R332A, M398P
chain 2: not shown
B16: IL6R-BP489/IL6R-L (antibody, human IgG1, kappa)
heavy: B1 heavy with G329A
light: not shown
B17: IL6R-BP493/IL6R-L (antibody, human IgG1, kappa)
heavy: B1 heavy with D235E, D239G, G329A, R332A, M398P
light: not shown
B18: IL6R-BP492/IL6R-L (antibody, human IgG1, kappa)
heavy: B1 heavy with D235E, D239G, D298Y, G329A, R332A, M398P
light: not shown
B19: IL6R-BP495/IL6R-L (antibody, human IgG1, kappa)
heavy: B1 heavy with D235E, I266V, A269G, G329A, M398P
light: not shown
B20: IL6R-BP568/IL6R-L (antibody)
heavy: B1 heavy with D239G, D298Y, G329A, R332A, M398P
light: not shown
B21: mutation B (antibody, human IgG1, kappa)
heavy chain: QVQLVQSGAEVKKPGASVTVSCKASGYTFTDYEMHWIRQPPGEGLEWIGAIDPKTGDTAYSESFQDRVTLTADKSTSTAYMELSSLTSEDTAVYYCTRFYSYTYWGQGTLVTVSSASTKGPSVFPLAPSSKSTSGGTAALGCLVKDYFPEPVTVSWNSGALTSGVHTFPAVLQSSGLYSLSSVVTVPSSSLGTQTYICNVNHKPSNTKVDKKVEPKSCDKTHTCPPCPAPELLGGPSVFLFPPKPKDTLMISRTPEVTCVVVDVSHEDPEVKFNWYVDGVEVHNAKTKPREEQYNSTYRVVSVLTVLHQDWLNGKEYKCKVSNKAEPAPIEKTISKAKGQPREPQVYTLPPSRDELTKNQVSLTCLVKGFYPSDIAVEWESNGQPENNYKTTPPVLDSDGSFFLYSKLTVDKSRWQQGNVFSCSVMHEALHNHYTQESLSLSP
light chain: B14 light chain
notes: Legend: mutation B = Leu at 328 (EU numbering) substituted with Glu
B22: G237W (antibody, human IgG1, kappa)
heavy chain: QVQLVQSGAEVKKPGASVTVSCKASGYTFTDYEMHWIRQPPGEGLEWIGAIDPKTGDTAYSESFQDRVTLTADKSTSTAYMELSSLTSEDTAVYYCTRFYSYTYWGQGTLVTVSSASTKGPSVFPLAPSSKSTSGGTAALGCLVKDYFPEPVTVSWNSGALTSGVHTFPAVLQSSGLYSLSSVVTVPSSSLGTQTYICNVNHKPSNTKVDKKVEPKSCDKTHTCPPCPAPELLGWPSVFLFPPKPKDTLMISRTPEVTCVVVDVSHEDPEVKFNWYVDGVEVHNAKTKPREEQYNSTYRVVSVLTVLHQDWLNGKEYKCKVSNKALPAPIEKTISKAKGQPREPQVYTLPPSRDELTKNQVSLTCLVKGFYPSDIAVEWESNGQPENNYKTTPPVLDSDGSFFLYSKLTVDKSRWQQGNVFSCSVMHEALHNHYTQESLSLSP
light chain: B14 light chain
notes: also called GpH7-B3 with G237W / GpL16-k0 (no P238D)
B23: G237A (antibody, human IgG1, kappa)
heavy chain: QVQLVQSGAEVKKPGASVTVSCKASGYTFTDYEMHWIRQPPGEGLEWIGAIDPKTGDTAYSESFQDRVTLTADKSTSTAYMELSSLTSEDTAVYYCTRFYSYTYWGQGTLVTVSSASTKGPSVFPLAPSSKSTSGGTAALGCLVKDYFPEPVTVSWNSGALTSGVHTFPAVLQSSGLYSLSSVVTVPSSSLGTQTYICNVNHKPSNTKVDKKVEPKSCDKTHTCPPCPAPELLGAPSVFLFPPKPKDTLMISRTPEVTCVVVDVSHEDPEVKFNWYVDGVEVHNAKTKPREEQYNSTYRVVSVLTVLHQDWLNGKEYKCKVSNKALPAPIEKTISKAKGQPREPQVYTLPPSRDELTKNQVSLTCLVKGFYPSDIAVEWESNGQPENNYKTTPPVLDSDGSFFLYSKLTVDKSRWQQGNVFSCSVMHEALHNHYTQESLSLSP
light chain: B14 light chain
notes: also called GpH7-B3 with G237A / GpL16-k0 (no P238D)
B24: G237L (antibody, human IgG1, kappa)
heavy chain: not shown
light chain: B14 light chain
notes: also called GpH7-B3 with G237L / GpL16-k0 (no P238D)
B25: L234W (antibody, human IgG1, kappa)
heavy chain: not shown
light chain: B14 light chain
notes: also called GpH7-B3 with L234W / GpL16-k0 (no P238D)
B26: G237Y (antibody, human IgG1, kappa)
heavy chain: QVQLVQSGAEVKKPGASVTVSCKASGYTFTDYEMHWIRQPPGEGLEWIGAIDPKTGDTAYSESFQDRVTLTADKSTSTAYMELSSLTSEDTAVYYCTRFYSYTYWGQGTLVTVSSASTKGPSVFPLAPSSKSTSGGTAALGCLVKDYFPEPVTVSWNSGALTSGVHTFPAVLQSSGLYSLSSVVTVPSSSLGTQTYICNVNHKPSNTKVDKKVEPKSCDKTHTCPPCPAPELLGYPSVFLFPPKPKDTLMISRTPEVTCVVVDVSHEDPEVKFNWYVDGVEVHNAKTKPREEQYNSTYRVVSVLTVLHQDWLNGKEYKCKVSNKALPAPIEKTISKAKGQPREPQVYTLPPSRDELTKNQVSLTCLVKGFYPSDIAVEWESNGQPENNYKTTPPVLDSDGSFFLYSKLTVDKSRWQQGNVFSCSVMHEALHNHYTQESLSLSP
light chain: B14 light chain
notes: also called GpH7-B3 with G237Y / GpL16-k0 (no P238D)
B27: G237D (antibody, human IgG1, kappa)
heavy chain: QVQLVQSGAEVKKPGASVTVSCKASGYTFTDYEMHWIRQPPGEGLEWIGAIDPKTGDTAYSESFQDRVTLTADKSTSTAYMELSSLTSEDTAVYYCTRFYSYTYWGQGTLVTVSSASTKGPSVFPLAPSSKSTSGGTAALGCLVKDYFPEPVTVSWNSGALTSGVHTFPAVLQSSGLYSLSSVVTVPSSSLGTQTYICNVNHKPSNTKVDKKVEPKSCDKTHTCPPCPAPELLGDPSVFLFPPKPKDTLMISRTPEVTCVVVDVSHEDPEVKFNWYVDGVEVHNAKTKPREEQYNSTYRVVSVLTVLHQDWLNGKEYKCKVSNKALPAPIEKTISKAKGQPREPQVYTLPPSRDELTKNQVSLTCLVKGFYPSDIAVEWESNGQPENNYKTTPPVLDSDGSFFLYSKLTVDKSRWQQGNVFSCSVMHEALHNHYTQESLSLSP
light chain: B14 light chain
notes: also called GpH7-B3 with G237D / GpL16-k0 (no P238D)
B28: L234Y (antibody, human IgG1, kappa)
heavy chain: not shown
light chain: B14 light chain
notes: also called GpH7-B3 with L234Y / GpL16-k0 (no P238D)
B29: S239D (antibody, human IgG1, kappa)
heavy chain: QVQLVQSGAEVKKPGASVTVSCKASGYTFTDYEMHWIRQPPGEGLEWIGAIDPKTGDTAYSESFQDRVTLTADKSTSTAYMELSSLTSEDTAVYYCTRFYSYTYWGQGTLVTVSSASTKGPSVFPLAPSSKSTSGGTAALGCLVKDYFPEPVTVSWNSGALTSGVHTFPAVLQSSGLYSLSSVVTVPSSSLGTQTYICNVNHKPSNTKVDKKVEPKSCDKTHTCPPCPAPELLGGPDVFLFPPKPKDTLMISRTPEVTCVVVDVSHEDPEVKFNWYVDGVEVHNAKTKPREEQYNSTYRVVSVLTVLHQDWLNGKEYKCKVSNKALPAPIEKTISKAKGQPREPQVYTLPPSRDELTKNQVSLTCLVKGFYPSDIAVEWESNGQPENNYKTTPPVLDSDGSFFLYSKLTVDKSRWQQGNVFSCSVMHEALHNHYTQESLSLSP
light chain: B14 light chain
notes: also called GpH7-B3 with S239D / GpL16-k0 (no P238D)
B30: G237F (antibody, human IgG1, kappa)
heavy chain: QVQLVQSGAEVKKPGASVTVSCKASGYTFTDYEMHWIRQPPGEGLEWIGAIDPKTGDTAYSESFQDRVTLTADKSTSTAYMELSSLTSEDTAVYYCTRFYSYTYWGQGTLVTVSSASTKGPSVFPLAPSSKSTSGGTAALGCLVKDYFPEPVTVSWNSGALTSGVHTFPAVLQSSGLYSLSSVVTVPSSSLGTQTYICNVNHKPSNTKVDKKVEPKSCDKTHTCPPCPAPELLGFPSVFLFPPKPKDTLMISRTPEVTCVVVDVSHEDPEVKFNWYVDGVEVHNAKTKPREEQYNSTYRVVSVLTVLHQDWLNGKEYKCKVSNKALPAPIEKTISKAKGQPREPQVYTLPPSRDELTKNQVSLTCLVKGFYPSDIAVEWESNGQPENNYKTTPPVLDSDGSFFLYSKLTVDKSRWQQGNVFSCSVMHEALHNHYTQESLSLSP
light chain: B14 light chain
notes: also called GpH7-B3 with G237F / GpL16-k0 (no P238D)
B31: G237E (antibody, human IgG1, kappa)
heavy chain: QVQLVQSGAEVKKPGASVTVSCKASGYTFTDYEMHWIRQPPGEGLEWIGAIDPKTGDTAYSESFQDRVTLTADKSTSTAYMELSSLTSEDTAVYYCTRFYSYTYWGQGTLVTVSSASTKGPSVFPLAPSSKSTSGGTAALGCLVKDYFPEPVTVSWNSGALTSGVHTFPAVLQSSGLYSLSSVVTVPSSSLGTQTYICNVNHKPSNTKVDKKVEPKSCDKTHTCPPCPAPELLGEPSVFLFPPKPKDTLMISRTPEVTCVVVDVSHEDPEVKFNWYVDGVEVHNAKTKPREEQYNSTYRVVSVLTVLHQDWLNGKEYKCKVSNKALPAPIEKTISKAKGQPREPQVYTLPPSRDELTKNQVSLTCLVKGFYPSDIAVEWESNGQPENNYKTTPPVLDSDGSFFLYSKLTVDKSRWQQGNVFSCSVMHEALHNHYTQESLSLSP
light chain: B14 light chain
notes: also called GpH7-B3 with G237E / GpL16-k0 (no P238D)
B32: G237M (antibody, human IgG1, kappa)
heavy chain: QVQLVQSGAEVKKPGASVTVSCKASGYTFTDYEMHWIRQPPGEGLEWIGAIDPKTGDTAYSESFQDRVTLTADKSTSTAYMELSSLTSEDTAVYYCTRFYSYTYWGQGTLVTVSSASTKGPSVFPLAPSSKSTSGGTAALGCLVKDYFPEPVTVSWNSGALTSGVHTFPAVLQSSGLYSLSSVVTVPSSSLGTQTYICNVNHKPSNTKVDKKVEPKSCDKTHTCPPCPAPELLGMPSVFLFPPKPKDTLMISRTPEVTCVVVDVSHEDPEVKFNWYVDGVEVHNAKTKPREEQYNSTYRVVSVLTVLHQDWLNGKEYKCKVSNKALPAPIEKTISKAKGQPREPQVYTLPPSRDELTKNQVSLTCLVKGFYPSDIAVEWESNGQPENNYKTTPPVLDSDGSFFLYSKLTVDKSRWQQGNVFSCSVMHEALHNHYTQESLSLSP
light chain: B14 light chain
notes: also called GpH7-B3 with G237M / GpL16-k0 (no P238D)
B33: IL6R-BP264/IL6R-L (antibody, human IgG1, kappa)
heavy: B1 heavy with I266V, A269S, G329A, M398P
light: not shown

The binders below were run against T1, human FcγRIIb extracellular domain with … (assay: SPR).

Binder | binding result
B1 | binds
B2 | binds
B3 | binds
B4 | binds
B5 | binds
B6 | binds
B7 | binds
B8 | binds
B9 | binds
B10 | binds
B11 | binds
B12 | binds

These binders were tested against T2, human FcγRIa extracellular domain with C-terminal His tag (human, UniProt P12314 16-292) (assay: SPR).
T2 construct: Whole entry named; also called FcgRIa; FcgIa
T2 sequence (P12314 16-292): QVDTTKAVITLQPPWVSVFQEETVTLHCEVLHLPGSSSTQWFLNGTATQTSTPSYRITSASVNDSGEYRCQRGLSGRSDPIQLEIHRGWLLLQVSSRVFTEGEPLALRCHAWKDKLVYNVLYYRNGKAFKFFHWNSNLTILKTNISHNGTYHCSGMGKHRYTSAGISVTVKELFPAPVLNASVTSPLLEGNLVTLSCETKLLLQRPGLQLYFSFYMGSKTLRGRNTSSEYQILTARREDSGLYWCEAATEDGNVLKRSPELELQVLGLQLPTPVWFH

Binder | binding result
B13 | binds
B11 | binds

Each binder was assayed against T3, FcγRIIIa extracellular domain with C-terminal His tag, allotype not stated (Reference Example 4) (human, UniProt P08637 17-208) (assay: SPR (Biacore): antibody captured on the chip, FcγR as analyte; amount bound divided by amount of antibody captured, relative to the antibody without mutation in B3 = 100 (Reference Examples 2 and 3)).
T3 construct: extracellular domain
T3 sequence (P08637 17-208): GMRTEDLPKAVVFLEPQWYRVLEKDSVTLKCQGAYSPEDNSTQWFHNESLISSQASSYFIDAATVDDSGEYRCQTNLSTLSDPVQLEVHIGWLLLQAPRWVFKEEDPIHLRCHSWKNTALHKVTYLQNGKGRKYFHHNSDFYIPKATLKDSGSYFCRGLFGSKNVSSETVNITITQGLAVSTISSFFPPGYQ

Binder | binding result
B14 | no binding

These binders were tested against T1, human FcγRIIb extracellular domain with … (assay: SPR KD ratio; reference is the same variant's KD for FcγRIIaR).

Binder | KD (IIaR)/KD (IIb)
B15 | 16.1
B13 | 64.4

What follows are binders tested against T1, human FcγRIIb extracellular domain with … (assay: SPR KD ratio).

Binder | fold binding (IL6R-B3/IL6R-L = 1) | fold binding against the native form
B16 | 3100 times | 
B17 |  | 147 fold
B18 |  | 131 fold
B19 | 321 times | 
B20 |  | 211 fold

The binders below were run against T2, human FcγRIa extracellular domain with … (assay: SPR (Biacore): antibody captured on the chip, FcγR as analyte; amount bound divided by amount of antibody captured, relative to the antibody without mutation in B3 = 100 (Reference Examples 2 and 3)).

Binder | binding result
B21 | binds
B14 | binds

Each binder was assayed against T1, human FcγRIIb extracellular domain with … (assay: SPR (Biacore): amount of FcγRIIb bound per captured antibody, relative to the pre-altered antibody GpH7-B3/GpL16-k0 = 100 (Reference Examples 2, 3 and 6)).

Binder | binding result
B22 | binds
B23 | binds
B24 | binds
B25 | binds
B26 | binds
B27 | binds
B28 | binds
B29 | binds
B30 | binds
B31 | binds
B32 | binds

These binders were tested against T1, human FcγRIIb extracellular domain with … (assay: SPR (Biacore), KD by the method of Reference Example 2 (Example 9-3)).
Protocol: These variants were used for antibody expression and purification according to the method of Reference Example 1, and binding to each FcgR (FcgRIa. FcgRIIa type H, FcgRIIa type R, FcgRIIb, and FcgRIIIa type V) was assessed using the method of Reference Example 2.

Binder | binding result
B33 | binds
